# Data as given in patent US20220064329A1 (Novo Nordisk, published 2022).
# T1: recombinant human activated Factor VII (FVIIa) (human, UniProt P08709 61-212; P08709 213-466, ten glutamate residues of the Gla domain may be gamma-carboxylated)
# T1 construct: chains tethered by a disulfide bond; also called Factor VIIa; rFVIIa
# T1 sequence 1: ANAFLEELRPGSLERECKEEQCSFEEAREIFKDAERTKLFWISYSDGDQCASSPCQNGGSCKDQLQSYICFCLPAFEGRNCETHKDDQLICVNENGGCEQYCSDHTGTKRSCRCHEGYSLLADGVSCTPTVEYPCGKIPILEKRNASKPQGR
# T1 sequence 2: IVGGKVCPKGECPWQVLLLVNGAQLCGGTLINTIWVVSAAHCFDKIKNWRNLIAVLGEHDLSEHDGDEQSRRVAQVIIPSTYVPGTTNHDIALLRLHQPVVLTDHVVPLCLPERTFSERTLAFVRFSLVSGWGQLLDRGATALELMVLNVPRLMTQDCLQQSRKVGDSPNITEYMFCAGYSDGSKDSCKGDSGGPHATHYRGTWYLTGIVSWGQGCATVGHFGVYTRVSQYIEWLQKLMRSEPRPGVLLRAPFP
# Target: T1, recombinant human activated Factor VII …
# Assay: BLI (Fortebio)
row,Kd,Binder
1,35 nM,"VH SEQ ID NO 650 / VL SEQ ID NO 366 (antibody, IgG4, V domains shown, humanized 11F2; IgG4 S228P/kappa) VH: QVQLQESGPGLVKPSQTLSLTCTVSGYSISSDSAWSWIRQPPGKKLEWIGYIQYSGSTNYNPSLKSRVTISRDTSKNQFSLKLSSVTAADTAVYYCARSVNYYGNSFAVGPWGQGTLVTVSS VL: EIVLTQSPATLSLSPGERATLSCRASQGLSDYLAWYQQKPGEAPRLLIKYASQPATGIPARFSGSGSGTDFTLTISSLEPEDFAVYYCQNGHSFPLTFGQGTKLEIK"
2,0.75 nM,"VH SEQ ID NO 514 / VL SEQ ID NO 326 (antibody, IgG4, V domains shown, humanized 11F2; IgG4 S228P/kappa) VH: QVQLQESGPGLVEPSDTLSLTCAVSGYSITSDSAWSWIRQPPGKKLEWIGYIQYSGSTNYNPSLKSRVTMSRDTSKNQFSLKLSSVTALDTAVYYCARSVNYYGNSFAVGYWGQGTLVTVSS VL: EIVLTQSPATLSLSPGERATLSCRASQGISDYLHWYQQKPGEAPRLLIKYTSQPATGIPARFSGSGSGTDFTLTISSLEPEDFGVYYCQNGHSFPLTFGAGTKLELK"
3,1.3 nM,"VH SEQ ID NO 514 / VL SEQ ID NO 342 (antibody, IgG4, V domains shown, humanized 11F2; IgG4 S228P/kappa) VH: QVQLQESGPGLVEPSDTLSLTCAVSGYSITSDSAWSWIRQPPGKKLEWIGYIQYSGSTNYNPSLKSRVTMSRDTSKNQFSLKLSSVTALDTAVYYCARSVNYYGNSFAVGYWGQGTLVTVSS VL: EIVLTQSPATLSLSPGERATLSCRASQGISDYLHWYQQKPGQAPRLLIKYTSQPATGIPARFSGSGSGRDFTLTISSLEPEDFAVYYCQNGHSFPLTFGAGTKLELK"
4,28 nM,"VH SEQ ID NO 650 / VL SEQ ID NO 438 (antibody, IgG4, V domains shown, humanized 11F2; IgG4 S228P/kappa) VH: QVQLQESGPGLVKPSQTLSLTCTVSGYSISSDSAWSWIRQPPGKKLEWIGYIQYSGSTNYNPSLKSRVTISRDTSKNQFSLKLSSVTAADTAVYYCARSVNYYGNSFAVGPWGQGTLVTVSS VL: EIVLTQSPATLSLSPGERATLSCRASQGVSDYLAWYQQKPGQAPRLLIKYASQPATGIPARFSGSGSGTDFTLTISSLEPEDVAVYYCQNGHSFPLTFGQGTKLEIK"
5,1.3 nM,"VH SEQ ID NO 650 / VL SEQ ID NO 502 (antibody, IgG4, V domains shown, humanized 11F2; IgG4 S228P/kappa) VH: QVQLQESGPGLVKPSQTLSLTCTVSGYSISSDSAWSWIRQPPGKKLEWIGYIQYSGSTNYNPSLKSRVTISRDTSKNQFSLKLSSVTAADTAVYYCARSVNYYGNSFAVGPWGQGTLVTVSS VL: EIVLTQSPATLSLSPGERATLSCRASQGVSDYLHWYQQKPGQAPRLLIKYTSQPATGIPARFSGSGSGTDFTLTISSLEPEDFAVYYCQNGHSFPLTFGQGTKLEIK"
6,180 nM,"VH SEQ ID NO 650 / VL SEQ ID NO 406 (antibody, IgG4, V domains shown, humanized 11F2; IgG4 S228P/kappa) VH: QVQLQESGPGLVKPSQTLSLTCTVSGYSISSDSAWSWIRQPPGKKLEWIGYIQYSGSTNYNPSLKSRVTISRDTSKNQFSLKLSSVTAADTAVYYCARSVNYYGNSFAVGPWGQGTLVTVSS VL: EIVLTQSPATLSLSPGERATLSCRASQGVSDYLAWYQQKPGQAPRLLIKYASQPATGIPARFSGSGSGTDFTLTISSLEPEDFAVYYCQNGHSFPLTFGAGTKLEIK"
7,1.9 nM,"VH SEQ ID NO 650 / VL SEQ ID NO 382 (antibody, IgG4, V domains shown, humanized 11F2; IgG4 S228P/kappa) VH: QVQLQESGPGLVKPSQTLSLTCTVSGYSISSDSAWSWIRQPPGKKLEWIGYIQYSGSTNYNPSLKSRVTISRDTSKNQFSLKLSSVTAADTAVYYCARSVNYYGNSFAVGPWGQGTLVTVSS VL: EIVLTQSPATLSLSPGERATLSCRASQGLSDYLHWYQQKPGEAPRLLIKYASQPATGIPARFSGSGSGTDFTLTISSLEPEDFAVYYCQNGHSFPLTFGQGTKLEIK"
8,1.3 nM,"VH SEQ ID NO 650 / VL SEQ ID NO 486 (antibody, IgG4, V domains shown, humanized 11F2; IgG4 S228P/kappa) VH: QVQLQESGPGLVKPSQTLSLTCTVSGYSISSDSAWSWIRQPPGKKLEWIGYIQYSGSTNYNPSLKSRVTISRDTSKNQFSLKLSSVTAADTAVYYCARSVNYYGNSFAVGPWGQGTLVTVSS VL: EIVLTQSPATLSLSPGERATLSCRASQGVSDYLHWYQQKPGQAPRLLIKYASQPATGIPARFSGSGSGTDFTLTISSLEPEDFGVYYCQNGHSFPLTFGQGTKLEIK"
9,55 nM,"VH SEQ ID NO 650 / VL SEQ ID NO 398 (antibody, IgG4, V domains shown, humanized 11F2; IgG4 S228P/kappa) VH: QVQLQESGPGLVKPSQTLSLTCTVSGYSISSDSAWSWIRQPPGKKLEWIGYIQYSGSTNYNPSLKSRVTISRDTSKNQFSLKLSSVTAADTAVYYCARSVNYYGNSFAVGPWGQGTLVTVSS VL: EIVLTQSPATLSLSPGERATLSCRASQGVSDYLAWYQQKPGEAPRLLIKYTSQPATGIPARFSGSGSGTDFTLTISSLEPEDFAVYYCQNGHSFPLTFGQGTKLEIK"
10,99 nM,"VH SEQ ID NO 650 / VL SEQ ID NO 390 (antibody, IgG4, V domains shown, humanized 11F2; IgG4 S228P/kappa) VH: QVQLQESGPGLVKPSQTLSLTCTVSGYSISSDSAWSWIRQPPGKKLEWIGYIQYSGSTNYNPSLKSRVTISRDTSKNQFSLKLSSVTAADTAVYYCARSVNYYGNSFAVGPWGQGTLVTVSS VL: EIVLTQSPATLSLSPGERATLSCRASQGVSDYLAWYQQKPGEAPRLLIKYASQPATGIPARFSGSGSGTDFTLTISSLEPEDFAVYYCQNGHSFPLTFGQGTKLEIK"
11,1.6 nM,"VH SEQ ID NO 650 / VL SEQ ID NO 494 (antibody, IgG4, V domains shown, humanized 11F2; IgG4 S228P/kappa) VH: QVQLQESGPGLVKPSQTLSLTCTVSGYSISSDSAWSWIRQPPGKKLEWIGYIQYSGSTNYNPSLKSRVTISRDTSKNQFSLKLSSVTAADTAVYYCARSVNYYGNSFAVGPWGQGTLVTVSS VL: EIVLTQSPATLSLSPGERATLSCRASQGVSDYLHWYQQKPGQAPRLLIKYASQPATGIPARFSGSGSGTDFTLTISSLEPEDVAVYYCQNGHSFPLTFGQGTKLEIK"
12,46 nM,"VH SEQ ID NO 650 / VL SEQ ID NO 374 (antibody, IgG4, V domains shown, humanized 11F2; IgG4 S228P/kappa) VH: QVQLQESGPGLVKPSQTLSLTCTVSGYSISSDSAWSWIRQPPGKKLEWIGYIQYSGSTNYNPSLKSRVTISRDTSKNQFSLKLSSVTAADTAVYYCARSVNYYGNSFAVGPWGQGTLVTVSS VL: EIVLTQSPATLSLSPGERATLSCRASQGLSDYLAWYQQKPGQAPRLLIKYTSQPATGIPARFSGSGSGTDFTLTISSLEPEDFAVYYCQNGHSFPLTFGQGTKLEIK"
13,39 nM,"VH SEQ ID NO 650 / VL SEQ ID NO 446 (antibody, IgG4, V domains shown, humanized 11F2; IgG4 S228P/kappa) VH: QVQLQESGPGLVKPSQTLSLTCTVSGYSISSDSAWSWIRQPPGKKLEWIGYIQYSGSTNYNPSLKSRVTISRDTSKNQFSLKLSSVTAADTAVYYCARSVNYYGNSFAVGPWGQGTLVTVSS VL: EIVLTQSPATLSLSPGERATLSCRASQGVSDYLAWYQQKPGQAPRLLIKYTSQPATGIPARFSGSGSGTDFTLTISSLEPEDFAVYYCQNGHSFPLTFGQGTKLEIK"
14,28 nM,"VH SEQ ID NO 650 / VL SEQ ID NO 430 (antibody, IgG4, V domains shown, humanized 11F2; IgG4 S228P/kappa) VH: QVQLQESGPGLVKPSQTLSLTCTVSGYSISSDSAWSWIRQPPGKKLEWIGYIQYSGSTNYNPSLKSRVTISRDTSKNQFSLKLSSVTAADTAVYYCARSVNYYGNSFAVGPWGQGTLVTVSS VL: EIVLTQSPATLSLSPGERATLSCRASQGVSDYLAWYQQKPGQAPRLLIKYASQPATGIPARFSGSGSGTDFTLTISSLEPEDFGVYYCQNGHSFPLTFGQGTKLEIK"
15,2600 nM,"VH SEQ ID NO 650 / VL SEQ ID NO 422 (antibody, IgG4, V domains shown, humanized 11F2; IgG4 S228P/kappa) VH: QVQLQESGPGLVKPSQTLSLTCTVSGYSISSDSAWSWIRQPPGKKLEWIGYIQYSGSTNYNPSLKSRVTISRDTSKNQFSLKLSSVTAADTAVYYCARSVNYYGNSFAVGPWGQGTLVTVSS VL: EIVLTQSPATLSLSPGERATLSCRASQGVSDYLAWYQQKPGQAPRLLIKYASQPATGIPARFSGSGSGTDFTLTISSLEPEDFAVYYCQQGHSFPLTFGQGTKLEIK"
16,3 nM,"VH SEQ ID NO 650 / VL SEQ ID NO 478 (antibody, IgG4, V domains shown, humanized 11F2; IgG4 S228P/kappa) VH: QVQLQESGPGLVKPSQTLSLTCTVSGYSISSDSAWSWIRQPPGKKLEWIGYIQYSGSTNYNPSLKSRVTISRDTSKNQFSLKLSSVTAADTAVYYCARSVNYYGNSFAVGPWGQGTLVTVSS VL: EIVLTQSPATLSLSPGERATLSCRASQGVSDYLHWYQQKPGQAPRLLIKYASQPATGIPARFSGSGSGTDFTLTISSLEPEDFAVYYCQQGHSFPLTFGQGTKLEIK"
17,1.4 nM,"VH SEQ ID NO 650 / VL SEQ ID NO 454 (antibody, IgG4, V domains shown, humanized 11F2; IgG4 S228P/kappa) VH: QVQLQESGPGLVKPSQTLSLTCTVSGYSISSDSAWSWIRQPPGKKLEWIGYIQYSGSTNYNPSLKSRVTISRDTSKNQFSLKLSSVTAADTAVYYCARSVNYYGNSFAVGPWGQGTLVTVSS VL: EIVLTQSPATLSLSPGERATLSCRASQGVSDYLHWYQQKPGEAPRLLIKYASQPATGIPARFSGSGSGTDFTLTISSLEPEDFAVYYCQNGHSFPLTFGQGTKLEIK"
18,1.6 nM,"VH SEQ ID NO 650 / VL SEQ ID NO 462 (antibody, IgG4, V domains shown, humanized 11F2; IgG4 S228P/kappa) VH: QVQLQESGPGLVKPSQTLSLTCTVSGYSISSDSAWSWIRQPPGKKLEWIGYIQYSGSTNYNPSLKSRVTISRDTSKNQFSLKLSSVTAADTAVYYCARSVNYYGNSFAVGPWGQGTLVTVSS VL: EIVLTQSPATLSLSPGERATLSCRASQGVSDYLHWYQQKPGQAPRLLIKYASQPATGIPARFSGSGSGTDFTLTISSLEPEDFAVYYCQNGHSFPLTFGAGTKLEIK"
19,1.6 nM,"VH SEQ ID NO 650 / VL SEQ ID NO 470 (antibody, IgG4, V domains shown, humanized 11F2; IgG4 S228P/kappa) VH: QVQLQESGPGLVKPSQTLSLTCTVSGYSISSDSAWSWIRQPPGKKLEWIGYIQYSGSTNYNPSLKSRVTISRDTSKNQFSLKLSSVTAADTAVYYCARSVNYYGNSFAVGPWGQGTLVTVSS VL: EIVLTQSPATLSLSPGERATLSCRASQGVSDYLHWYQQKPGQAPRLLIKYASQPATGIPARFSGSGSGTDFTLTISSLEPEDFAVYYCQNGHSFPLTFGQGTKLEIK"
20,84 nM,"VH SEQ ID NO 650 / VL SEQ ID NO 414 (antibody, IgG4, V domains shown, humanized 11F2; IgG4 S228P/kappa) VH: QVQLQESGPGLVKPSQTLSLTCTVSGYSISSDSAWSWIRQPPGKKLEWIGYIQYSGSTNYNPSLKSRVTISRDTSKNQFSLKLSSVTAADTAVYYCARSVNYYGNSFAVGPWGQGTLVTVSS VL: EIVLTQSPATLSLSPGERATLSCRASQGVSDYLAWYQQKPGQAPRLLIKYASQPATGIPARFSGSGSGTDFTLTISSLEPEDFAVYYCQNGHSFPLTFGQGTKLEIK"
